Experimental data taken from article PMC3084709, “TMEFF2 Is a PDGF-AA Binding Protein with Methylation-Associated Gene Silencing in Multiple Cancer Types Including Glioma” (PLoS ONE, 2011).

Biological target: T1, recombinant human PDGF receptor α extracellular domain (PDGF sRα) (human, UniProt P16234 24-528, biotin (biotin-X-NHS) in the direct-binding ELISA on PDGF-coated wells; not said to be biotinylated in the blocking ELISA)
T1 construct: PDGF receptor α, human, extracellular domain; also called soluble PDGF receptor α; sRα-bio; source: bought: R&D Systems
T1 sequence (P16234 24-528): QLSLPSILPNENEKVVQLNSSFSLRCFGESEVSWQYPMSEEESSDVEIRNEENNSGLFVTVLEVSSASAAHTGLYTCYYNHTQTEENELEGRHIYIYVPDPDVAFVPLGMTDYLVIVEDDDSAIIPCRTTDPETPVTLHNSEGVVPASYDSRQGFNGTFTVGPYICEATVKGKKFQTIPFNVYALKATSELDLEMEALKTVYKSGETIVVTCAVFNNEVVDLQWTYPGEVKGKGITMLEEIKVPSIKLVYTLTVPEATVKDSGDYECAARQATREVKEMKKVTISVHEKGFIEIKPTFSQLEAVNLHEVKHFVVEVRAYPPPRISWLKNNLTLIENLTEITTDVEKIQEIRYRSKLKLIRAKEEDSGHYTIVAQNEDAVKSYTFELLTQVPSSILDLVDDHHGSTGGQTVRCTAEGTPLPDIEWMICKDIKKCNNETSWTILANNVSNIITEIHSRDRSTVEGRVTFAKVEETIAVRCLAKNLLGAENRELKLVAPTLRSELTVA
Assay: ELISA; serially diluted biotinylated PDGF sRα added to PDGF-coated wells; detected with streptavidin-HRP
Settings: both partners purified

B1: recombinant human PDGF-BB (ligand, UniProt P01127 82-190, looked up)
chain: SLGSLTIAEPAMIAECKTRTEVFEISRRLIDRTNANFLVWPPCVEVQRCSGCCNNRNVQCRPTQVQLRPVQVRKIEIVRKKPIFKKATVTLEDHLACKCETVAAARPVT
notes: PDGF-B chain, human; homodimer; source: bought: R&D Systems
binding result: binds
